This is an account of results in the supplement of paper PMC5998384.

The subject of series [1] is HeLa Kyoto. Briefly: solubility in G1/S (NP-40 vs SDS abundance) (log2 ratio); higher = more soluble. To be noted: cell cycle stage: G1/S.
Series [2] has as its system HeLa Kyoto. Briefly: melting temperature (median over replicates), in situ; higher = more thermally stable.
The subject of series [3] is HeLa Kyoto. Briefly: solubility change mitosis vs G1/S (difference of NP-40 vs SDS log2 ratios) (log2 ratio difference); higher = more soluble in mitosis.
In series [4] the test system is HeLa Kyoto. The series is described as follows: thermal stability score vs G1/S (z-score of summed log2 fold changes over temperatures); higher = more thermally stable than in G1/S.
Where [5] appears, read: cell cycle stage: early G1 (4.5 h after nocodazole release).
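Throughout, for melting temperature (median over replicates), in situ: HeLa Kyoto cells synchronized by double thymidine or nocodazole block, proteins quantified by TMT10plex mass spectrometry, three independent biological replicates.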
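Throughout, for solubility change mitosis vs G1/S (difference of NP-40 vs SDS log2 ratios): synchronized HeLa Kyoto cells (double thymidine block for G1/S, nocodazole release for mitosis), protein amounts in NP-40 versus SDS lysates quantified by mass spectrometry, three biological replicates.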
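Throughout, for solubility in G1/S (NP-40 vs SDS abundance): HeLa Kyoto cells arrested at G1/S by double thymidine block, proteins quantified by TMT10plex mass spectrometry in mild NP-40 versus SDS extracts, three biological replicates.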
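Throughout, for thermal stability score vs G1/S (z-score of summed log2 fold changes over temperatures): synchronized HeLa Kyoto cells, proteins quantified by TMT10plex mass spectrometry, three biological replicates, mitosis taken 0.5 h after nocodazole release, G1/S directly after double thymidine block.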

In the case of “MSSLSGKVQTVLGLVEPSKLGRTLTHEHLAMTFDCCYCPPPPCQEAISKEPIVMKNLYWIQKNAYSHKENLQLNQETEAIKEELLYFKANGGGALVENTTTGISRDTQTLKRLAEETGVHIISGAGFYVDATHSSETRAMSVEQLTDVLMNEILHGADGTSIKCGIIGEIGCSWPLTESERKVLQATAHAQAQLGCPVIIHPGRSSRAPFQIIRILQEAGADISKTVMSHLDRTILDKKELLEFAQLGCYLEYDLFGTELLHYQLGPDIDMPDDNKRIRRVRLLVEEGCEDRILVAHDIHTKTRLMKYGGHGYSHILTNVVPKMLLRGITENVLDKILIENPKQWLTFK [PTER]”, the “solubility in G1/S (log2)” value in series [1] worked out at 0.0448. The melting temperature in series [2] (cell cycle stage: G1/S) was found to be 56.8 °C; in series [2] (cell cycle stage: mitosis), 57 °C. In series [3], the “solubility change mitosis (log2)” value is -0.0354. Moreover, the results for the thermal stability score in series [4] (setting [5]) and in series [4] (cell cycle stage: mitosis) were -2.92 and -0.753, respectively.

Take “MSSPQAPEDGQGCGDRGDPPGDLRSVLVTTVLNLEPLDEDLFRGRHYWVPAKRLFGGQIVGQALVAAAKSVSEDVHVHSLHCYFVRAGDPKLPVLYQVERTRTGSSFSVRSVKAVQHGKPIFICQASFQQAQPSPMQHQFSMPTVPPPEELLDCETLIDQYLRDPNLQKRYPLALNRIAAQEVPIEIKPVNPSPLSQLQRMEPKQMFWVRARGYIGEGDMKMHCCVAAYISDYAFLGTALLPHQWQHKVHFMVSLDHSMWFHAPFRADHWMLYECESPWAGGSRGLVHGRLWRQDGVLAVTCAQEGVIRVKPQVSESKL [ACOT8]”: the “solubility in G1/S (log2)” value in series [1] is -0.0523. In addition, the melting temperature was determined as 51.9 °C in series [2] (cell cycle stage: G1/S) and 53.8 °C in series [2] (cell cycle stage: mitosis). For the same sequence, in series [3], the “solubility change mitosis (log2)” value is -0.588. Further, the thermal stability score in series [4] (setting [5]) was 0.114; in series [4] (cell cycle stage: mitosis), -0.515.

Take “MSSRIARALALVVTLLHLTRLALSTCPAACHCPLEAPKCAPGVGLVRDGCGCCKVCAKQLNEDCSKTQPCDHTKGLECNFGASSTALKGICRAQSEGRPCEYNSRIYQNGESFQPNCKHQCTCIDGAVGCIPLCPQELSLPNLGCPNPRLVKVTGQCCEEWVCDEDSIKDPMEDQDGLLGKELGFDASEVELTRNNELIAVGKGSSLKRLPVFGMEPRILYNPLQGQKCIVQTTSWSQCSKTCGTGISTRVTNDNPECRLVKETRICEVRPCGQPVYSSLKKGKKCSKTKKSPEPVRFTYAGCLSVKKYRPKYCGSCVDGRCCTPQLTRTVKMRFRCEDGETFSKNVMMIQSCKCNYNCPHANEAAFPFYRLFNDIHKFRD [CYR61]”: the “solubility in G1/S (log2)” value in series [1] was -0.183. Also, the melting temperature was 52.8 °C in series [2] (cell cycle stage: G1/S) and 54.1 °C in series [2] (cell cycle stage: mitosis). For the same sequence, the “solubility change mitosis (log2)” value in series [3] is -0.133. Also, the thermal stability score in series [4] (setting [5]) came to 5.63; in series [4] (cell cycle stage: mitosis) it was 3.33.

In the case of “MSSSVRRKGKPGKGGGKGSSRGGRGGRSHASKSHGSGGGGGGGGGGGGGNRKASSRIWDDGDDFCIFSESRRPSRPSNSNISKGESRPKWKPKAKVPLQTLHMTSENQEKVKALLRDLQEQDADAGSERGLSGEEEDDEPDCCNDERYWPAGQEPSLVPDLDPLEYAGLASVEPYVPEFTVSPFAVQKLSRYGFNTERCQAVLRMCDGDVGASLEHLLTQCFSETFGERMKISEAVNQISLDECMEQRQEEAFALKSICGEKFIERIQNRVWTIGLELEYLTSRFRKSKPKESTKNVQENSLEICKFYLKGNCKFGSKCRFKHEVPPNQIVGRIERSVDDSHLNAIEDASFLYELEIRFSKDHKYPYQAPLVAFYSTNENLPLACRLHISEFLYDKALTFAETSEPVVYSLITLLEEESEIVKLLTNTHHKYSDPPVNFLPVPSRTRINNPACHKTVIPNNSFVSNQIPEVEKASESEESDEDDGPAPVIVENESYVNLKKKISKRYDWQAKSVHAENGKICKQFRMKQASRQFQSILQERQSLPAWEERETILNLLRKHQVVVISGMTGCGKTTQIPQFILDDSLNGPPEKVANIICTQPRRISAISVAERVAKERAERVGLTVGYQIRLESVKSSATRLLYCTTGVLLRRLEGDTALQGVSHIIVDEVHERTEESDFLLLVLKDIVSQRPGLQVILMSATLNAELFSDYFNSCPVITIPGRTFPVDQFFLEDAIAVTRYVLQDGSPYMRSMKQISKEKLKARRNRTAFEEVEEDLRLSLHLQDQDSVKDAVPDQQLDFKQLLARYKGVSKSVIKTMSIMDFEKVNLELIEALLEWIVDGKHSYPPGAILVFLPGLAEIKMLYEQLQSNSLFNNRRSNRCVIHPLHSSLSSEEQQAVFVKPPAGVTKIIISTNIAETSITIDDVVYVIDSGKMKEKRYDASKGMESLEDTFVSQANALQRKGRAGRVASGVCFHLFTSHHYNHQLLKQQLPEIQRVPLEQLCLRIKILEMFSAHNLQSVFSRLIEPPHTDSLRASKIRLRDLGALTPDERLTPLGYHLASLPVDVRIGKLMLFGSIFRCLDPALTIAASLAFKSPFVSPWDKKEEANQKKLEFAFANSDYLALLQAYKGWQLSTKEGVRASYNYCRQNFLSGRVLQEMASLKRQFTELLSDIGFAREGLRAREIEKRAQGGDGVLDATGEEANSNAENPKLISAMLCAALYPNVVQVKSPEGKFQKTSTGAVRMQPKSAELKFVTKNDGYVHIHPSSVNYQVRHFDSPYLLYHEKIKTSRVFIRDCSMVSVYPLVLFGGGQVNVQLQRGEFVVSLDDGWIRFVAASHQVAELVKELRCELDQLLQDKIKNPSIDLCTCPRGSRIISTIVKLVTTQ [DHX57]”, the “solubility in G1/S (log2)” value in series [1] is -0.884. Besides, the melting temperature amounted to 53 °C in series [2] (cell cycle stage: G1/S) and 51.9 °C in series [2] (cell cycle stage: mitosis). For the same sequence, in series [3], the “solubility change mitosis (log2)” value was determined as 0.223. The thermal stability score in series [4] (setting [5]) is -0.0848; in series [4] (cell cycle stage: mitosis) it was -0.271.

Regarding “MSSVAVLTQESFAEHRSGLVPQQIKVATLNSEEESDPPTYKDAFPPLPEKAACLESAQEPAGAWGNKIRPIKASVITQVFHVPLEERKYKDMNQFGEGEQAKICLEIMQRTGAHLELSLAKDQGLSIMVSGKLDAVMKARKDIVARLQTQASATVAIPKEHHRFVIGKNGEKLQDLELKTATKIQIPRPDDPSNQIKITGTKEGIEKARHEVLLISAEQDKRAVERLEVEKAFHPFIAGPYNRLVGEIMQETGTRINIPPPSVNRTEIVFTGEKEQLAQAVARIKKIYEEKKKKTTTIAVEVKKSQHKYVIGPKGNSLQEILERTGVSVEIPPSDSISETVILRGEPEKLGQALTEVYAKANSFTVSSVAAPSWLHRFIIGKKGQNLAKITQQMPKVHIEFTEGEDKITLEGPTEDVNVAQEQIEGMVKDLINRMDYVEINIDHKFHRHLIGKSGANINRIKDQYKVSVRIPPDSEKSNLIRIEGDPQGVQQAKRELLELASRMENERTKDLIIEQRFHRTIIGQKGERIREIRDKFPEVIINFPDPAQKSDIVQLRGPKNEVEKCTKYMQKMVADLVENSYSISVPIFKQFHKNIIGKGGANIKKIREESNTKIDLPAENSNSETIIITGKRANCEAARSRILSIQKDLANIAEVEVSIPAKLHNSLIGTKGRLIRSIMEECGGVHIHFPVEGSGSDTVVIRGPSSDVEKAKKQLLHLAEEKQTKSFTVDIRAKPEYHKFLIGKGGGKIRKVRDSTGARVIFPAAEDKDQDLITIIGKEDAVREAQKELEALIQNLDNVVEDSMLVDPKHHRHFVIRRGQVLREIAEEYGGVMVSFPRSGTQSDKVTLKGAKDCVEAAKKRIQEIIEDLEAQVTLECAIPQKFHRSVMGPKGSRIQQITRDFSVQIKFPDREENAVHSTEPVVQENGDEAGEGREAKDCDPGSPRRCDIIIISGRKEKCEAAKEALEALVPVTIEVEVPFDLHRYVIGQKGSGIRKMMDEFEVNIHVPAPELQSDIIAITGLAANLDRAKAGLLERVKELQAEQEDRALRSFKLSVTVDPKYHPKIIGRKGAVITQIRLEHDVNIQFPDKDDGNQPQDQITITGYEKNTEAARDAILRIVGELEQMVSEDVPLDHRVHARIIGARGKAIRKIMDEFKVDIRFPQSGAPDPNCVTVTGLPENVEEAIDHILNLEEEYLADVVDSEALQVYMKPPAHEEAKAPSRGFVVRDAPWTASSSEKAPDMSSSEEFPSFGAQVAPKTLPWGPKR [HDLBP]”, the “solubility in G1/S (log2)” value in series [1] was determined as 0.183. Further, the melting temperature in series [2] (cell cycle stage: G1/S) stood at 46.8 °C; in series [2] (cell cycle stage: mitosis), 47.6 °C. In addition, the “solubility change mitosis (log2)” value in series [3] was -0.084. Also, the thermal stability score was determined as 1.14 in series [4] (setting [5]) and 3.41 in series [4] (cell cycle stage: mitosis).

In the case of “MSTAQSLKSVDYEVFGRVQGVCFRMYTEDEARKIGVVGWVKNTSKGTVTGQVQGPEDKVNSMKSWLSKVGSPSSRIDRTNFSNEKTISKLEYSNFSIRY [ACYP2]”, the “solubility in G1/S (log2)” value in series [1] worked out at 0.215. In addition, the melting temperature in series [2] (cell cycle stage: G1/S) amounted to 53.7 °C; in series [2] (cell cycle stage: mitosis) it was 53.4 °C. In series [3], the “solubility change mitosis (log2)” value was -0.0326. Further, the results for the thermal stability score in series [4] (setting [5]) and in series [4] (cell cycle stage: mitosis) were -0.285 and -1.11, respectively.

In the case of “MSTAREQPIFSTRAHVFQIDPATKRNWIPAGKHALTVSYFYDATRNVYRIISIGGAKAIINSTVTPNMTFTKTSQKFGQWADSRANTVYGLGFASEQHLTQFAEKFQEVKEAARLAREKSQDGGELTSPALGLASHQVPPSPLVSANGPGEEKLFRSQSADAPGPTERERLKKMLSEGSVGEVQWEAEFFALQDSNNKLAGALREANAAAAQWRQQLEAQRAEAERLRQRVAELEAQAASEVTPTGEKEGLGQGQSLEQLEALVQTKDQEIQTLKSQTGGPREALEAAEREETQQKVQDLETRNAELEHQLRAMERSLEEARAERERARAEVGRAAQLLDVSLFELSELREGLARLAEAAP [HOMER3]”, in series [1], the “solubility in G1/S (log2)” value was found to be 0.263. Also, the values for the melting temperature in series [2] (cell cycle stage: G1/S) and in series [2] (cell cycle stage: mitosis) were 48.7 °C and 51.7 °C, respectively. Further, in series [3], the “solubility change mitosis (log2)” value is 0.0389. The thermal stability score in series [4] (setting [5]) was -1.1; in series [4] (cell cycle stage: mitosis), -1.09.
